Test results published in publication doi:10.1101/2020.12.29.424742.
Several values for one entry are separate records, joined by “and”; a condition that tells them apart may be missing. Identical values can stand only once. One block for each substance: values may come before it.

Assays:
Experiment in all cases: SEC
[1] = target: DEBS3M5 KS0-AT A539D (Saccharopolyspora erythraea)
[2] = target: DEBS3M5 KS0-AT A539E (Saccharopolyspora erythraea)
[3] = target: DEBS3M5 KS0-AT A539F (Saccharopolyspora erythraea)
[4] = target: DEBS3M5 KS0-AT A539S (Saccharopolyspora erythraea)
[5] = target: DEBS3M5 KS0-AT R850A (Saccharopolyspora erythraea)
[6] = target: DEBS3M5 KS0-AT R850E (Saccharopolyspora erythraea)
[7] = target: DEBS3M5 KS0-AT R850F (Saccharopolyspora erythraea)
[8] = target: DEBS3M5 KS0-AT R850K (Saccharopolyspora erythraea)
[9] = target: DEBS3M5 KS0-AT R850S (Saccharopolyspora erythraea)
[10] = target: DEBS3M5 KS0-AT didomain, wild type (6-deoxyerythronolide B synthase module 5, KS knockout) (Saccharopolyspora erythraea)
[11] = target: PikAIIIM5 KS0-AT didomain (pikromycin synthase module 5) (Streptomyces venezuelae)
[12] = target: Pks7 KS0-AT didomain (Saccharopolyspora erythraea)
[13] = target: RAPS3M14 KS0-AT didomain (rapamycin synthase module 14) (Streptomyces hygroscopicus)

stoichiometry N [1]: 4 and 2
Substance: DEBS3M5 KS0-AT A539D (domain or fragment)

stoichiometry N [2]: 4 and 2
Substance: DEBS3M5 KS0-AT A539E (domain or fragment)

stoichiometry N [3]: 4 and 2
Substance: DEBS3M5 KS0-AT A539F (domain or fragment)

stoichiometry N [4]: 4 and 2
Substance: DEBS3M5 KS0-AT A539S (domain or fragment)

stoichiometry N [5]: 4 and 2
Substance: DEBS3M5 KS0-AT R850A (domain or fragment)

stoichiometry N [6]: 4 and 2
Substance: DEBS3M5 KS0-AT R850E (domain or fragment)

stoichiometry N [7]: 4 and 2
Substance: DEBS3M5 KS0-AT R850F (domain or fragment)

stoichiometry N [8]: 4 and 2
Substance: DEBS3M5 KS0-AT R850K (domain or fragment)

stoichiometry N [9]: 4 and 2
Substance: DEBS3M5 KS0-AT R850S (domain or fragment)

stoichiometry N [10]: 4 and 2
Substance: DEBS3M5 KS0-AT didomain, wild type (6-deoxyerythronolide B synthase module 5, KS knockout) (domain or fragment)

Substance: PikAIIIM5 KS0-AT didomain (pikromycin synthase module 5) (domain or fragment)
stoichiometry N [11]: 2

stoichiometry N [12]: 2
Substance: Pks7 KS0-AT didomain (domain or fragment)

Substance: RAPS3M14 KS0-AT didomain (rapamycin synthase module 14) (domain or fragment)
stoichiometry N [13]: 4
